# Reference: the RNAGym collection of RNA variant scans (doi:10.7554/elife.90254)
# B1: LINE1-mini (parent)
# chain: GGCAGAGCUCAACACAGCGUGGCAAAGUGGCUGUGGCUAGACUGCC
# Variants of: B1
# Assay: self-cleavage, relative activity (ratio to wild type); higher = more cleavage; in vitro, sequencing; the parent is a self-cleaving ribozyme
row,Variant,self-cleavage
1,G1C A24C,0.07
2,G1C A24U,0.2
3,G1C A24G,0.29
4,G1U A25G,0.21
5,G1U A25U,0.45
6,G1U A25C,0.21
7,G1C U20C,0.04
8,G1C U20A,0.06
9,G1C U20G,0.05
10,G1C A16U,0.02
11,G1C A16C,0.01
12,G1C A16G,0.12
13,G1U C18A,0.16
14,G1U C18G,0.06
15,G1U C18U,0.51
16,G1C G40C,0.03
17,G1C G40U,0.02
18,G1C G40A,0.03
19,G1A C31U,0.32
20,G1U G21C,0.39
21,G1U G21A,0.77
22,G1U G21U,0.41
23,G1U A14U,0.16
24,G1U A14G,0.12

row,Variant,self-cleavage
1,G1U A14C,0.03
2,G1C C8G,0.02
3,G1C C8U,0.07
4,G1C C8A,0.06
5,G1C C18G,0.03
6,G1C C18A,0.04
7,G1C C18U,0.05
8,G1U G27A,0.36
9,G1U G27C,0.27
10,G1U G27U,0.25
11,G1A G17A,0.15
12,G1A G17U,0.13
13,G1A G17C,0.18
14,G1A G21U,1.38
15,G1A G21A,1.86
16,G1A G21C,2.09
17,G1U C42G,0.04
18,G1U C42U,0.06
19,G1U C42A,0.07
20,G1U C45A,0.26
21,G1U C45G,0.1
22,G1U C45U,0.38
23,G1U G30U,0.59
24,G1U G30A,0.43

row,Variant,self-cleavage
1,G1U G30C,0.27
2,G1U A6G,0.07
3,G1U A6C,0.51
4,G1U A6U,0.22
5,G1C G33U,0.04
6,G1C G33A,0.03
7,G1C G33C,0.14
8,G1U G36C,0.04
9,G1U G36U,0.11
10,G1U G36A,0.11
11,G1A U38G,0.03
12,G1A U38C,0.84
13,G1A U38A,1.36
14,G1C G29C,0.07
15,G1C G29A,0.16
16,G1C G29U,0.14
17,G1C G17A,0.02
18,G1C G17U,0.02
19,G1C G17C,0.06
20,G1U G7A,0.11
21,G1U G7U,0.06
22,G1U G7C,0.12
23,G1C A39U,0.06
24,G1C A39C,0.04

row,Variant,self-cleavage
1,G1C A39G,0.01
2,G1U G2U,0.13
3,G1U G2C,0.16
4,G1U G2A,0.38
5,G1C G19A,0.11
6,G1C G19U,0.06
7,G1C G19C,0.04
8,G1U C23U,0.31
9,G1U C23A,0.36
10,G1U C23G,0.24
11,G1C G44C,0.03
12,G1C G44A,0.06
13,G1C G44U,0.06
14,G1U C13G,0.13
15,G1U C13A,0.05
16,G1U C13U,0.07
17,G1A G35C,0.1
18,G1A G35U,0.17
19,G1A G35A,0.2
20,G1U C46U,0.43
21,G1U C46G,0.74
22,G1U C46A,0.53
23,G1C U9A,0.02
24,G1C U9C,0.03

row,Variant,self-cleavage
1,G1C U9G,0.02
2,G1C U32C,0.03
3,G1C U32A,0.02
4,G1C U32G,0.04
5,G1U G22C,0.23
6,G1U G22U,0.43
7,G1U G22A,0.25
8,G1A U20A,1.27
9,G1A U20G,0.58
10,G1A U20C,0.33
11,G1A U34G,0.29
12,G1A U34C,0.14
13,G1A U34A,0.08
14,G1U A12C,0.02
15,G1U A12U,0.08
16,G1U A12G,0.04
17,G1A G5U,0.08
18,G1A G5A,0.2
19,G1A G5C,0.08
20,G1U C37A,0.06
21,G1U C37G,0.03
22,G1U C37U,0.04
23,G1C G27U,0.12
24,G1C G27C,0.14

row,Variant,self-cleavage
1,G1C G27A,0.16
2,G1C C46G,0.3
3,G1C C46U,0.18
4,G1C C46A,0.28
5,G1C C42A,0.02
6,G1C C42G,0.01
7,G1C C42U,0.04
8,G1C U38G,0.01
9,G1C U38A,0.05
10,G1C U38C,0.06
11,G1U,0.33
12,G1C,0.13
13,G1C G7A,0.04
14,G1C G7C,0.02
15,G1C G7U,0.03
16,G1C A14G,0.08
17,G1C A14U,0.02
18,G1C A14C,0.02
19,G1U C15A,0.08
20,G1U C15U,0.21
21,G1U C15G,0.04
22,G1C G35C,0.02
23,G1C G35A,0.03
24,G1C G35U,0.03

row,Variant,self-cleavage
1,G1U G17U,0.06
2,G1U G17C,0.05
3,G1U G17A,0.1
4,G1A G22C,1.94
5,G1A G22A,0.94
6,G1U C10G,0.03
7,G1U C10A,0.03
8,G1U C10U,0.08
9,G1A G33U,0.09
10,G1A G33A,0.09
11,G1A G33C,0.05
12,G1A G19A,1.77
13,G1A G19C,1.28
14,G1A G19U,0.94
15,G1U A24U,0.32
16,G1U A24G,0.25
17,G1U A24C,0.36
18,G1U A39U,0.2
19,G1U A39G,0.05
20,G1U A39C,0.09
21,G1U G40U,0.08
22,G1U G40C,0.04
23,G1U G40A,0.04
